From the domain aggregation screens of Martell et al. (2025)

Test: soluble fraction after stress (log2 fold change); higher = more stays soluble; pooled small domains, quantitative proteomics
Details: stress: 75 degC
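Also: 20 min heating vs room temperature control held 20 min.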

| Sequence | soluble fraction (log2) |
| --- | --- |
| HMNPNFIEVSHGRLRVNVPLSAYEGTTYHIKPEEAEKLKRTLASRYPWLTPNALKVFIEEAEQAMRERIQ | -0.403 |
| HMNPSKEFNMSDLLKAKMVGDVSAAKRREKAGALLHIGYGNAKTFLKKLNHFSISREEWDKVIAAMEEF | -1.26 |
| HMNPSVSSDERILLQKALGILSAEQKQIVMLHAVAGIKHREIAKLLDMPIATVLSKYSRAVNKLRHAMEA | -0.456 |
| HMNPTTDFFKLEGIDATRILVFDQVGRQVAQFSQPAQQMDIQALPAGVYALRIENADGQVYSARIVK | -0.231 |
| HMNPVVATTIILDGEIIKDNLAEANLSEEWLLEELKRQNFNDVKEVFYAEWLDGKQLFAYPYTK | -0.537 |
| HMNQDIIEIGNNIQKIRKKNGISQSVLAEKIDVAGNSIYRMEGATTVMGVDKLINIADALNTSPMDILPAR | 0.0791 |
| HMNQDMINFDKLSVRLKNVLIENNLKTVDSLLNYPAEEFEYLTNLGEKTLQELLTYRNELAASNNIQ | -0.51 |
| HMNQGKLIEMLQEMKEIAHSQNNYLTKNEIANYLGDTVLSKEQLQAVYHYLGENHIEVEGYVYIP | ≥ 1.04 |
| HMNQIATSTQAIITTLSFLNTSSIFKLPVGDTASRPTGVSPGTLRFNSQEDSAEIYKADDGTGSAGWTEVA | -0.296 |
| HMNQIDEATAATITTLNFLNTNSEFKIPVGDTATRPGTPAIGMMRFNSENDKAEIYVADFDGDGNPGWINL | -0.0556 |
| HMNQILDFTREVKNLPEQDKIKIVEALWSIIYSNKDADIYETNLMRRLAGLLYIDNKTMGDIKEKIKQNL | -0.906 |
| HMNQNHFLDSVVEFAKDEASRAFFQKAVKKLGEGLVEEAMGEVKMREADGSVNSRAPYFIALLENWMENR | -0.0208 |
| HMNQNIYVPKLEGLQIEEASSILKSKGLNIEITDSIFRKDAVPGAIIEQTPKPNSRVKTGRNIYVSIYSK | 0.385 |
| HMNQSEMIGSRLKEERLQQKLTLKQLSEKVGLSIGYLSQVERGYGTLSLSALKKLSSALGLEMSTFFD | -2.43 |
| HMNQTGQYENAAKRFNQLITIDSSDKRAYLQLGISNYNLGNKEKADSLFNIIRNSKDKLLIEELDNFLT | -0.102 |
| HMNQYALTDREKNVLGLLVDGLSYKMIADKENISFHTVNAHVRKIYEKLHVHSLAEAVSKALKENL | -2.07 |
| HMNQYRKLDGDVQNQIIYILSEYPKLPATIVYQRLLDTNTIVKKDVSLSTVNRFVQKYKDSKGIT | -1.19 |
| HMNREDYIKAIFKIAEREGEASNQRIADSLGVSRASASEMVKKLIQEGFVVAEGRQLSLSAEGERIA | -0.185 |
| HMNREEKKALTRRQIIDVATRLFRQHGIHNTDLKTIATEAGVSVVTFYKYFDSKEALIGTIAAEQ | -0.804 |
| HMNRNHVFDSNGPDLRLRGTAQQLFEKYLQLGRDATSGGDRVMAEGYFQHAEHYFRILNAMNQAAMQH | -1.15 |
| HMNRPYETLFTGLTTDEASAIVGKLEEYGAADYKIEGDTIKVPAAQEPDLKAKLLLDGYPKS | 0.231 |
| HMNRTEYMAALRRALSVLPEEERASALRYYEEYFDDAGPENEEKVIADLGAPEKVAGQILADYRE | 0.0934 |
| HMNSDQMKEHLDNLVDMAKKNDNTLIDTEIVNYFVGKPDIELNTDMMTKIFDYLDEHHVAVLS | 0.146 |
| HMNSEFPFNGGRIVDNVPANRLQIFFDEKPDADVRTRLKQNGFRWAPNSGAWQSYRHGYTLDWARREFNA | -0.136 |

| Sequence | soluble fraction (log2) |
| --- | --- |
| HMNSEPKTKLQEIAQERGLAAPVYETTHTGPDHDRIFSASVTVGDVVAAGEARSRKGAESEAAIAAIKALG | 0.195 |
| HMNSFGWESLIDKEGIADTDLHPSGWVRIDDRRIFVVSEGDFIDKGSGVTVLSVDGNRVVVRELI | -1.38 |
| HMNSHLEEGRHGLQIGDPGIVRARIESDPEGETDMPVVVIDGRNISWNEFGRMVATYTGFQFKLEM | -0.629 |
| HMNSHQNELDNALTEAHTASRRLLEGTDEYLDLSSQPAYIRRLQHLLAQKYNLGSLSSGVEPNRHIRLLQ | -0.265 |
| HMNSIDIENELVKIIEKNGQPMSFDDLVFKLDSLYSTRYKFAKGYIRTIILNSNRIASIGKTSTYSLYKWN | -3.12 |
| HMNSKKETLLSYLYNHSTWSSRNDLSNFLNVSTRQVTNYINEINKNETIVLSSNKGYKINPKFIGKN | -1.61 |
| HMNSKMTYSDLIGNIEQGNVSSVELASDGKSATVTLTDNSQKQVNIPSLDSFVTYVQDHIKAGTLSVEE | 0.344 |
| HMNSKSDDELLSKTTSLLIHAAKIDENYTDKEKEIIKKTLIQLGVKESKADQIMLTAEINEE | ≥ 1.04 |
| HMNSKYILLQVSDIPKTSLVLERQFGVTEYSVQDEHTLRIYDTSLDMAAVNKALVVQDIAVISSQL | -1.69 |
| HMNSLFPLSLKYLREQANITQAELAQKLDVTQQAVGRWERGQTSPDYETLKRLSVLFNVSVDYLLGV | -1.1 |
| HMNSNIIKTINDELSIRKGKYGPYIMYKTKKMKRPKFKSIGDNTPDEFLADKGSISEIILWIN | -0.527 |
| HMNSSHRLIGLDPGLRVTGWGIVDAIGTKLVHVANGSVKSQQNAPLATRLLELENGLEEVFDNWQPDFA | 0.034 |
| HMNSVLPQEVKSSLNDFFTKYAPGSIAQKLINHASFTGGKVVVTGVELTQTQADDLKKAFKDKFF | -0.00219 |
| HMNSVTLEHIVYDFRVFNMLKGSGINDIDELIKAAEDGRLFKIIGSNLTYKRIKKSAAEFGVILPDKPG | -2.25 |
| HMNSVYTPDPKELAKAIKIVTAAREAEQKGQGVIAVDGRMVDAPVVSQALRILELARLAGMEVSE | 0.0743 |
| HMNTAIPIAIDQLRIGMYIQLGLNWMSHPFPVSSFRIASESQIEILRGLGLAEVRYVPAKSDPVP | -3.26 |
| HMNTDEYEQKRGEILDAAQRLIYTKGYERMSIQDILDELKISKGAFYHYFDSKQSLLEALTARMMTE | -0.44 |
| HMNTDIHRLLDEAFVRVDMTPDAQHLKEEIRANLVARVDELEASGVPSADAARRAIAELGDVRELL | 0.291 |
| HMNTFDLSKLEEIILASRDKAMKTKEFTELDNLKNLFITAGLDVQMSKNGIKLIKGPKFNSSLLEDF | -0.878 |
| HMNTIIIDILPKGLSIAGNQTEPKSLIQQLLMARRADPAQPILLRPAIAVPVQNVVELIDRLTAAGI | -0.306 |
| HMNTISEADAKRIALERAGLTAADYVKVDYDQDDNEYEVEMRSGNTEYEVKISGSTGAVLEYDSETD | -0.358 |
| HMNTISTLEITTKKDIRILDESELLKSKSSKNNIFNYLLASGDFNLLKDKLNEIDEFSDEIISYQLN | -0.788 |
| HMNTKQRTAVMRILKQSSDPVSADDVFAALKDEYPSLALSTVYRNLERFADESMVKKDVWSDGIVRYSLAD | -0.21 |
| HMNTLGTNIAKLRESQKLTQEELGKLSGVSRVSIYKIETGQSTPRDTTLQNIAEALHTTPSALRS | 0.0781 |

| Sequence | soluble fraction (log2) |
| --- | --- |
| HMNTLLYAPKVSPNPFTPNADGINDVVNISYKLLRVISAVPISVEVFDLSGRLIKTLYSGVDPLGEY | 0.194 |
| HMNTLPASVQPKKGRLYAVIQTKENGKSKPVWRSLGLPEGSNKSKVNKAFREVVKQFEEEYAERLAR | -0.181 |
| HMNTLPTDELMKYGIINEDLSFSKKLNADDIQKFLQGYTIVADNDKNRATFQLTENNTKLKVIFLER | -0.44 |
| HMNTLRFPEGTPEKDRMSIILASYNSGIGHVNDARRLARLNGEDPNSWEVVARYLQLKAQPEYYESEAVK | -0.204 |
| HMNTPAENFDKAVEKYKSTNSATEKDAAFKVIEDEWIKLSDEEKKERQDEYDSIFESEGDRV | 0.0843 |
| HMNTQGWEIFEGRITTADTDLNPSGWIRIDGQRIFVISDAGFIDKGKEVSILSVDGNRVLVRK | -0.646 |
| HMNTSMIEHMDKSTFIRFVFTNPVTHDQAVAKLMEKHMWFSTEEKAEAEIDKLLNKTNSLIESGGKLTW | 0.0867 |
| HMNTTLQLDTILRLEKNAHLLENFVRAGFTDSELGKLTDADLLQIGVPKIGDRRRLLAALAERAH | -0.904 |
| HMNTVSPAVSAQLRQELGGELNNANFQQLQQYLQAGQRDEAIVYLTSLGIESPRAVSIVNNAMDQIG | 0.494 |
| HMNVDIVEITKNSSPNQISKVIDIGAIQIVEDLMSFGIMKAIDTPLEDSEIEQLLEKYNLIVDLIE | -2.01 |
| HMNVDSIPGKSGIVTQGIDNLKAMGRVTVNGMEWTARSKDGSLIEEGKVVRVYGVEGVKLIVEED | 0.0811 |
| HMNVDSLPGEKAVVIKTIDNLRGTGQAVVNGLEWSAKSKDETIIDEGKVVRIVAVEGVKLVVEEE | 0.0298 |
| HMNVEALIGREGRVTDKIEANGYGRVKVDGDSWKAKSANGAEIRQNTDVRILSIDSVIITVEP | -0.766 |
| HMNVESLVGKQVIVSETIDNLKATGQVKVNGLEWTARAADETDIIPQGTEVTINEVSGVKLIVSR | 0.0398 |
| HMNVESMVGKQGKVVVEIDNISAKGMIKVDGMEWTARSVDGEIIPKDSLVAVVSVEGVKAMVRKAE | -0.106 |
| HMNVGKRLKSLREKYKFSLEEVAKKIKSSAGAISRYENNERKINSESLIRLSNLYNVSPEYILYG | -0.621 |
| HMNVKQALLELMQRKPELTGSAIARAIGYSPAVISQYLKDGYPGDVVKLTTLIGDFIRRIDEKERS | -0.526 |
| HMNVKVYATIDGDNFKVSGLKPGSNVRVYSSNGSAVFEKKAGDSEMIIPAGAWTKGIYVISADDQSIKVT | -0.0855 |
| HMNVLGQTAIVRSLRLDATFGEVLLADGGAGLIFKARTHGDETFKKGDRVVLLEYLKDQHAYRVISETDFL | -2.45 |
| HMNVLLGISELSHATGVTPAQLRYWVSQGYIKNYGSNKKNKFSLETVFMVRSIKIFQNQGYTLSASAKRAA | -1.38 |
| HMNVNFVQANLANLPNIQAIYQKGNEMLNDMKRGEAREIDEAYSRVDNGVGTEKDFKVLLSFRDKIIAAMQ | -0.112 |
| HMNVNSMIGKEGRVIEDIDNFNETGRIIVDGMEWTARAVNEQSITSGQKVVIREIQGVKAMVVPM | 0.115 |
